Assay results as given in patent US20190233498A1 (H LUNDBECK A S, published 2019).

T1: human PACAP27 (human, C-terminal leucine is amidated; 125I-labelled in Example 10)
T1 peptide: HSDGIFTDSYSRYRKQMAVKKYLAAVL

T2: human PACAP38 (human, not fully specified; C-terminal lysine is amidated; N-terminal or C-terminal biotin in the HTRF and PC-12 cell binding assays)
T2 construct: synthetic peptide, bought; also called huPACAP (1-38)
T2 peptide: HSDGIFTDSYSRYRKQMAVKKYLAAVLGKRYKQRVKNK

T3: human VIP (human)
T3 construct: also called Vasoactive Intestinal Peptide
T3 peptide: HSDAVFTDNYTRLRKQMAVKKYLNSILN


Tests used:
human PACAP27 [1] = biological target: T1, human PACAP27; test: SPR, Ab immobilised
Experimental: [The procedure below names another target; the source says it served here with some conditions changed.] (§1) Binding affinities of monoclonal antibodies for human PACAP were estimated using SPR on the PROTEON™ XPR36 (Bio-Rad, Hercules, Calif.). Antibody was immobilized to the surface of general amine coupling (“GLC” or “GLM”) Chips (Bio-Rad, Hercules, Calif.). A dilution series of human PACAP38 (SEQ ID NO: 1241) prepared in 1×PBST Buffer (4.3 mM Na Phosphate, 1.4 mM K Phosphate, 135 mM NaCl, 2.7 mM KCl 0.05% Polysorbate-20) purchased from Teknova (Cat# P1192, Teknova, Hollister, Calif.) and supplemented with 0.25 M arginine (from J.T. BAKER®), 0.2 mg/ml BSA (Jackson Immuno Research Labs, West Grove, Pa.), and 0.005% sodium azide (VWR International, Radnor, Pa.) with the pH adjusted to 7 was used to query the antibodies. Antigen (ranging from 1.23 nM to 100 nM) was typically run sequentially with association times of 2-4 minutes and dissociation times of 3-120 minutes grouped with the PROTEON™ Manager Software (v3.1.0.6 (Bio-Rad, Hercules, Calif.)) and fitted using a 1:1 Langmuir binding model. Surfaces were regenerated between analyte queries using 0.85% Phosphoric Acid.

human PACAP38 [2] = biological target: T2, human PACAP38; test: SPR, Ab immobilised
Experimental: as §1

human VIP = biological target: T3, human VIP; test: SPR, Ab immobilised
Experimental: [The procedure below names another target; the source says it served here with some conditions changed.] as §1

human PACAP38 [3] = biological target: T2, human PACAP38; test: cell-based or functional assay
human PACAP27 [4] = biological target: T1, human PACAP27; test: cell-based or functional assay
human PACAP38 [5] = biological target: T2, human PACAP38; test: cell-based or functional assay
human PACAP38 [6] = biological target: T2, human PACAP38; test: cell-based or functional assay
human PACAP38 [7] = biological target: T2, human PACAP38; test: HTRF binding, biotin-PACAP38
Experimental: In parallel, 10 μl of an antibody dilution series (highest final concentration of 100 nM) were incubated with 10 μl of N-terminal or C-terminal biotinylated PACAP38 (35 nM final) alone, or in combination with either PACAP27 (350 nM final) or VIP (350 nM final), i.e., 10× PACAP27 or 10×VIP, respectively, in a HTRF plate. 20 μl of Eu³⁺ cryptate labeled anti-hu Fc donor and 20 μl of d2-labeled streptavidin acceptor were added to each well and incubated for 1 hour at room temperature. Fluorescence was measured at 620 and 665 nm with a delay of 300 μsec.
EC₅₀ values, i.e. the concentration of an antibody that yields a response halfway between the baseline and the maximum value within a specified time period, were computed for each antibody based upon their binding curves and are shown in Table 1 below. […] A humanized form of antibody Ab1 was produced and is identified by an appended “.H”, i.e., Ab1.H, and it also bound PACAP38 with high affinity.

human PACAP38 [8] = biological target: T2, human PACAP38; test: inhibition of 100 nM biotin-PACAP38 binding to PC-12 cells, TRF
Experimental: To identify antibodies that block PACAP38 binding to PAC1-R-expressing cells, adherent PC-12 cells (ATCC, Manassas, Va.) expressing PAC1-R were used in a Europium-based PAC1-R expressing cells binding assay.
Antibody solutions were incubated with N-terminal biotinylated PACAP38 at 10× the final concentration (100 nM or 30 nM) for 1 hr, then added to PC-12 cells that were plated 24 hrs. prior in black clear bottom 96 well plates (COSTAR™, Corning Incorporated, Corning, N.Y.) and further incubated for 1 hr at room temperature. After three washes, the cells were incubated with 20 μl Europium-labeled streptavidin (PerkinElmer, Waltham, Mass.) for 1 hr at room temperature. Cells were washed three times, then 20 μl DELFIA® Enhancement solution (PerkinElmer, Waltham, Mass.) was added to each well and incubated for 15 minutes with gentle shaking. Plates were read (Time Resolved Fluorescence (“TRF”)) on SPECTRAMAX® (Molecular Devices, Sunnyvale, Calif.) plate reader.
FIGS. 14A-14BB are representative of the inhibition curves obtained by this method (results are shown for Ab1, Ab2, Ab3, Ab4, Ab5, Ab6, Ab7, Ab8, Ab9, Ab10, Ab11, Ab12, Ab13, Ab14, Ab15, Ab16, Ab17, Ab18, Ab19, Ab1.H, Ab10.H, Ab22, Ab23, Ab3.H, Ab4.H, Ab5.H, Ab9.H, and Ab12.H, respectively) wherein the PAC1-R expressing cells were PC-12 cells.

Binder	Kd (human PACAP27 [1]) [nM]	koff (human PACAP27 [1]) [s⁻¹]	Kd (human PACAP38 [2]) [nM]	koff (human PACAP38 [2]) [s⁻¹]	kon (human PACAP38 [2]) [M⁻¹ s⁻¹]	kon (human PACAP27 [1]) [M⁻¹ s⁻¹]	Kd (human VIP) [µM]	koff (human VIP) [s⁻¹]	kon (human VIP) [M⁻¹ s⁻¹]	IC50, 0.1 nM PACAP38-induced PAC1-R mediated cAMP increase (human PACAP38 [3]) [nM]	IC50, 0.1 nM PACAP27-induced PAC1-R mediated cAMP increase (human PACAP27 [4]) [nM]	IC50, 5 nM PACAP38-induced human VPAC1-R mediated cAMP increase (human PACAP38 [5]) [µM]	IC50, 1 nM PACAP38-induced human VPAC2-R mediated cAMP increase (human PACAP38 [6]) [µM]	EC50 (human PACAP38 [7]) [µM]	IC50 (human PACAP38 [8]) [µM]
anti-PACAP antibody Ab10 (antibody, V domains shown) VH: QSVEESGGRLVTPGTPLTLTCTVSGIDLNSYYMTWVRQAPGKGLEWIGFIDAGGDAYYASWAKGRFTISKTSTTVDLKITSPTTEDTATYFCARDLDLWGQGTLVTVSS VL: AAVLTQTPSPVSAAVGGTVTINCQSSESVYGNYLAWFQQKPGQPPKLLIYEASKLESGVPSRFSGSGSGTQFTLTISDLQCDDAATYYCAGGDISEGVAFGGGTEVVVKR	0.01	1e-05													
anti-PACAP antibody Ab3 (antibody, human IgG1, kappa, N297A, V domains shown, full-length rabbit/human chimeric antibody) VH: QEQLVESGGGLVQPEGSLTLTCTASGFSFSSSDYMCWVRQAPGKGLEWIGCIDAGSSGDTYFASWAKGRFTISKTSSTTVTLQMTSLTAADTATYFCARHLYGSITFAFGLWGQGTLVTVSS VL: AAVLTQTPSPVSAAVGGTVTINCQASQSIGSDLAWYQQKPGQPPKLLIYDASTLASGVPSRFSGSGSGTQFTLTISGVQCDDAATYYCQGTYYSSGWYTAFGGGTEVVVKR	0.37	0.00014	0.16	4.2e-05	260000	370000	100000	0.1		0.227	0.09	0.00174	0.000667	0.00045	0.0172
anti-PACAP antibody Ab10.H (antibody, V domains shown) VH: EVQLVESGGGLVQPGGSLRLSCAASGIDLNSYYMTWVRQAPGKGLEWIGFIDAGGDAYYASWAKGRFTISRDNSKNTVYLQMNSLRAEDTAVYFCARDLDLWGQGTLVTVSS VL: DAQLTQSPSTLSASVGDRVTITCQSSESVYGNYLAWFQQKPGKAPKFLIYEASKLESGVPSRFSGSGSGTEFTLTISSLQPDDFATYYCAGGDISEGVAFGGGTKVEIKR			0.029	1e-05											
anti-PACAP antibody Ab11 (antibody, human IgG1, kappa, N297A, V domains shown, full-length rabbit/human chimeric antibody) VH: QSVEESGGRLVTPGTPLTLTCTASGFSLSRYAMGWVRQAPGKGLEWIGDISTYGTTDYASWVNGRFTISRTSTTVTLKMTSLTTEDTATYFCARDYWLSLWGQGTLVTVSS VL: AAVLTQTPSPVSAAVGGTVTIKCQSSQSVYDNNALAWYQQKPGQPPKLLIYAASNLASGVPDRFSGSGSGTQFTLTISGVQCDDAATYYCLGGYDDAADNAFGGGTEVVVKR	0.42	0.00011	0.11	3.1e-05	270000	260000	0.23	0.047	200000	0.0567	0.109	0.000541	0.000265	0.00053	0.0246
anti-PACAP antibody Ab7 (antibody, human IgG1, kappa, N297A, V domains shown, full-length rabbit/human chimeric antibody) VH: QSVEESGGRLVTPGTPLTLTCTASGIDLSGYAMGWVRQAPGKGLEWIGDISTYGTTDYASWVNGRFTISRTSTTVTLKMTSLTTEDTATYFCARDYWLSLWGPGTLVTVSS VL: AAVLTQTPSPVSAAVGGTVTIKCQSSQSVYDNNALAWYQQKPGQPPKLLIYAASTLASGVPSRFKGSGSGTQFTLTINGVQCDDAATYYCLGGYDDPADNAFGGGTEVVVKR	0.2	4.5e-05	≤ 0.056	≤ 1e-05	180000	230000	0.034	0.0088	260000	0.111	0.0458	0.000687	0.000162	0.00045	0.022

Next, values leading:

Kd (human PACAP27 [1]) [nM]	koff (human PACAP27 [1]) [s⁻¹]	Kd (human PACAP38 [2]) [nM]	koff (human PACAP38 [2]) [s⁻¹]	kon (human PACAP38 [2]) [M⁻¹ s⁻¹]	kon (human PACAP27 [1]) [M⁻¹ s⁻¹]	Kd (human VIP) [µM]	koff (human VIP) [s⁻¹]	kon (human VIP) [M⁻¹ s⁻¹]	IC50, 0.1 nM PACAP38-induced PAC1-R mediated cAMP increase (human PACAP38 [3]) [nM]	IC50, 0.1 nM PACAP27-induced PAC1-R mediated cAMP increase (human PACAP27 [4]) [nM]	IC50, 5 nM PACAP38-induced human VPAC1-R mediated cAMP increase (human PACAP38 [5]) [µM]	IC50, 1 nM PACAP38-induced human VPAC2-R mediated cAMP increase (human PACAP38 [6]) [µM]	EC50 (human PACAP38 [7]) [µM]	IC50 (human PACAP38 [8]) [µM]	Binder
0.074	2e-05	≤ 0.031	≤ 1e-05	320000	270000	0.25	0.067	270000	0.154	0.0957	0.00263	0.00084	0.00057	0.0179	anti-PACAP antibody Ab14 (antibody, human IgG1, kappa, N297A, V domains shown, full-length rabbit/human chimeric antibody) VH: QSVEASGGRLVTPGTPLTLTCTVSGFSLSSAAMNWVRQAPGKGLEWIGFIEYSKNIVYASWAKGRFTISKVSSTTVDLKMTSPTTEDTATYFCARGGGEFFIWGQGTLVTVSS VL: AQVLTQTPSSVSAAVGGTVTINCQSSQSVYSNNRLSYYQQKPGQPPKLLIYEASSLAYGVPSRFKGSGSGTQFTLTISDLECDDAATYYCAGAYSNSIYSFGGGTEVVVKR
0.07	2.1e-05	≤ 0.032	≤ 1e-05	310000	290000	0.0082	0.0024	290000	0.0511	0.0604	0.000292	0.000179	0.00051	0.0226	anti-PACAP antibody Ab12 (antibody, human IgG1, kappa, N297A, V domains shown, full-length rabbit/human chimeric antibody) VH: QSVEESGGRLVTPGTPLTLTCTASGFSLSSYAMGWVRQAPGKGLEWIGDISTYGTTDYASWVYGRFTISRTSTTVTLKMTSLTTEDTATYFCARDYWLSLWGQGTLVTVSS VL: AAVLTQTPSPVSAAVGGTVTIKCQSSQSVYDNNALAWYQQKPGQPPKLLIYAASTLASGVPSRFSGSGSGTEFTLTISGVQCDDAATYYCLGGYYDPADNAFGGGTEVVVKR
0.12	6.6e-05	0.064	2.7e-05	420000	540000	0.14	0.046	320000	0.0824	0.0741	0.00218	0.000652	0.00048	0.0531	anti-PACAP antibody Ab13 (antibody, human IgG1, kappa, N297A, V domains shown, full-length rabbit/human chimeric antibody) VH: QSVEESGGRLVTPGTPLTLTCTVSGFSLSSAAMNWVRQAPGKGLEWIGIIDNTAGTYYAPWAKGRFTISKTSSTTVDLKMTSPTTEDTATYFCARGGGEFFIWGPGTLVTVSS VL: AQVLTQTPSSVSAAVGGTVTINCQSSQSVHDGSYLSWYQQKPGQPPNFLIYQASNLASGVPSRFKGSGSGTQFTLTISDLECDDAATYYCAGGYSSNICGFGGGTEVVVKR
